What was measured:
[1] = molecular target: human wild-type p53 protein, P04637
[2] = molecular target: T1, mouse wild-type p53 protein, P02340
T1 chain: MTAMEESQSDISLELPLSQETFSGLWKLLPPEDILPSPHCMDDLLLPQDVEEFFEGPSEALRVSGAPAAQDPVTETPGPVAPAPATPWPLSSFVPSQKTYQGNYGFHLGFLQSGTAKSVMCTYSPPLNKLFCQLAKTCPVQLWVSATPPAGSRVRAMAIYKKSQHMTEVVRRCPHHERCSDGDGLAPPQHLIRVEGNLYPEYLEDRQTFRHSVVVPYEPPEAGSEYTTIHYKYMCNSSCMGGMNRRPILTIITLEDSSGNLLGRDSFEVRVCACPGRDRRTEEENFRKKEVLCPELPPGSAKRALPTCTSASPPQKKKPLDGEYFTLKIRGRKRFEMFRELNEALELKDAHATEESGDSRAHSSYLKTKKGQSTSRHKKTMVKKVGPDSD

[3] = molecular target: glyceraldehyde-3-phosphate dehydrogenase

Chain of human wild-type p53 protein, P04637 (P04637 whole entry, looked up): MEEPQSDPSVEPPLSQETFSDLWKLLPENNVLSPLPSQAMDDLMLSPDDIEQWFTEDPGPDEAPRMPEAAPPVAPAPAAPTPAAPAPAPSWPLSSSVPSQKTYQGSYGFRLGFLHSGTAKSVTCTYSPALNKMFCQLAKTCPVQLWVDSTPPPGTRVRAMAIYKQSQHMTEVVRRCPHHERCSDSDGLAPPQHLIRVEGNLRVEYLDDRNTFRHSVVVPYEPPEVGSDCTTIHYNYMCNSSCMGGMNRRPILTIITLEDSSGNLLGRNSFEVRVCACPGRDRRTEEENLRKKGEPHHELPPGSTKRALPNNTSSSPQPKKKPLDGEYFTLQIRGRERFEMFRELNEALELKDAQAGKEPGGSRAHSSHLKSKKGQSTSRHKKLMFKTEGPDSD

B1: bovine m-calpain (Sigma) (protein)
chain 1: AGIAAKLAKDREAAEGLGSHERAVKYLNQDYAALRDECLEAGALFQDPSFPALPSSLGFKELGPYSSKTRGIEWKRPTEICDNPQFITGGATRTDICQGALGDCWLLAAIASLTLNEEILARVVPLDQSFQENYAGIFHFQFWQYGEWVEVVVDDRLPTKDGELLFVHSAEGSEFWSALLEKAYAKINGCYEALSGGATTEGFEDFTGGIAEWYELRKAPPNLFRIIQKALQKGSLLGCSIDITSAADSEAITFQKLVKGHAYSVTGAEEVESRGSLQKLIRIRNPWGEVEWTGQWNDNCPNWNTVDPEVRETLTRQHEDGEFWMSFNDFLRHYSRLEICNLTPDTLTSDSYKKWKLTKMDGNWRRGSTAGGCRNYPNTFWMNPQYLIKLEEEDEDQEDGESGCTFLVGLIQKHRRRQRKMGEDMHTIGFGIYEVPEELTGQTNIHLSKKFFLTTRARERSDTFINLREVLNRFKLPPGEYIVVPSTFEPNKDGDFCIRVFSEKKADYQVVDDEIEANIDEIDISEDDIDDGFRRLFAQLAGEDAEISAFELQTILRRVLAKRQDIKSDGFSIETCKIMVDMLDSDGSGKLGLKEFYILWTKIQKYQKIYREIDVDRSGTMNSYEMRKALEEAGFKMPCQLHQVIVARFADDDLIIDFDNFVRCLIRLETLFRIFKQLDPENTGMIQLDLISWLSFSVL
chain 2: MFLVNSFLKGGGGGGGGGGLGGGLGNVLGGLISGAGGGGGGGGGGGGGGGGTAMRILGGVISAISEAAAQYNPEPVPPRTHYSNIEANESEEVRQFRRLFAQLAGDDMEVSATELMNILNKVVTRHPDLKTDGFGIDTCRSMVAVMDSDTTGKLGFEEFKYLWNNIKKWQAVYKQFDVDRSGTIGSSELPGAFEAAGFRLNEHLYNMIIRRYSDEGGNMDFDNFISCLVRLDAMFRAFKSLDKDGTGQIQVNIQEWLQLTMYS
With B1 the “degradation of the protein in reticulocyte lysate with calcium and m-calpain” value (dihydrofolate reductase) was “The degradation resistance of other proteins such as dihydrofolate reductase or glyceraldehyde-3-phosphate dehydrogenase under the same experimental conditions”, the “degradation of the in vitro translated protein in reticulocyte lysate with calcium (electrophoresis)” value [1] was “led to the rapid disappearance of the neosynthesized proteins and the appearance of proteolytic fragments” and the “degradation of the in vitro translated protein in reticulocyte lysate with calcium (electrophoresis)” value [2] was “led to the rapid disappearance of the neosynthesized proteins and the appearance of proteolytic fragments”. For the same protein, the “degradation of the protein in reticulocyte lysate with calcium and m-calpain” value [3] was “The degradation resistance of other proteins such as dihydrofolate reductase or glyceraldehyde-3-phosphate dehydrogenase under the same experimental conditions”.

Source: patent publication US20030060435
